From PMC9218434

Biological target: nucleosome core particle (NCP) of human histones H2A, H2B, H3.1 and H4 with the 145 base-pair Widom 601 DNA, P04908;P06899;P68431;P62805
Test: electrophoretic mobility shift assay
Conditions: non-denaturing 4% polyacrylamide gel, SYBR Gold staining, n = 3, read off a plot

Row | response (0.4 µM p300(BRPHΔAILZ), parent: est. 41) | response (0.8 µM p300(BRPHΔAILZ), parent: est. 62) | response (1.2 µM p300(BRPHΔAILZ), parent: est. 75) | response (0.4 µM p300(BRPHΔAILZ), parent: est. 48) | response (0.8 µM p300(BRPHΔAILZ), parent: est. 71) | response (1.2 µM p300(BRPHΔAILZ), parent: est. 82) | Substance
1 | 3.3% | 8% | 13% | – | – | – | p300(BRPH_(ΔAIL)Z), catalytic core of human p300 (aa 1035-1720, Y1467F, autoinhibition loop replaced by a linker) (from UniProt Q09472) R1137A
2 | – | – | – | 2.5% | 6% | 8.5% | p300(BRPH_(ΔAIL)Z), catalytic core of human p300 (aa 1035-1720, Y1467F, autoinhibition loop replaced by a linker) (from UniProt Q09472) K1456A; K1459A; K1461A; R1462A
